Legend:
[1] = test system: LrpA1 (Halobacterium salinarum R1); experiment: DNA-affinity chromatography (pull-down), SDS-PAGE densitometry; conditions: CFE buffer: 3 M KCl, 1 M NaCl, 5 mM MgCl2, 10 mM HEPES pH 7.1, room temperature, 4 h, 2 nmol LrpA1, 61 pmol biotinylated DNA
[2] = molecular target: LrpA1 (Halobacterium salinarum, UniProt B0R4X4); experiment: analytical DNA-affinity chromatography with aspB3 promoter, SDS-PAGE densitometry; assay type: biochemical; conditions: 5 mM L-aspartate; 3 M KCl, 1 M NaCl, 5 mM MgCl2, 10 mM HEPES, pH 7.1; room temperature, 4 h; effector of DNA binding, indirect read-out
[3] = molecular target: T1, LrpA1 (Halobacterium salinarum R1) (UniProt B0R4X4); experiment: DNA-affinity chromatography (pull-down), SDS-PAGE densitometry; conditions: CFE buffer: 3 M KCl, 1 M NaCl, 5 mM MgCl2, 10 mM HEPES pH 7.1; room temperature, 4 h; 2 nmol LrpA1, 61 pmol biotinylated DNA; elution with 1% SDS
T1 sequence: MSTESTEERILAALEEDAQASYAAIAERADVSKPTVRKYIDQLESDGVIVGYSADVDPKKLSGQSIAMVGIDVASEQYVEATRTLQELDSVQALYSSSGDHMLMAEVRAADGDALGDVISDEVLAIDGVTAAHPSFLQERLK

[4] = molecular target: the molecule itself; experiment: SEC; Superdex 200 3.2/3 column on a SMART device, 50 ul per min, CFE buffer (3 M KCl; 1 M NaCl; 10 mM HEPES, pH 7.1); LrpA1-His6 after renaturation; monomer to dimer

flgB1 control DNA
binding signal (% of aspB3-Pincl + 5 mM Arg) ([1]; 5 mM L-arginine, non-specific background, elution with 1% SDS): 30 | binding signal (% of aspB3-Pincl + 5 mM Asp) ([1]; 5 mM L-aspartate, non-specific background, elution with 1% SDS): 7 | binding signal (% of lrpA1-Pincl) ([1]; no amino acid, non-specific background, elution with 1% SDS): 37

aspB3-Pincl
binding signal (% band density) ([1]; 5 mM L-arginine, text: binding not enhanced by arginine, elution with 1% SDS): 100 | binding signal (% band density) ([1]; 5 mM L-aspartate, elution with 1% SDS): 100 | binding signal (% of aspB3-Pincl + 5 mM Arg) ([1]; no amino acid (arginine experiment), elution with 1% SDS): 77 | binding signal (% of aspB3-Pincl + 5 mM Asp) ([1]; no amino acid (aspartate experiment), elution with 1% SDS): 34

N[C@@H](CC(=O)O)C(=O)O [L-aspartate]
relative binding efficiency to aspB3-Pincl DNA [2]: resulting in significantly enhanced binding of LrpA1 to the aspB3Pincl sequence

lrpA1-Pincl
binding signal (% band density) ([1]; no amino acid, elution with 1% …): 100

ATCGCGCTTGAACGTCTGCATACGTCCGCTACGCACCAGGCGCGCAAAACTTCAGGGGGTTCGGGACCCGCGGGTTGTGCCGTGATAGCACACGCGTCCCGCAGGAACGATTATGAGGGATGGCCGCGATCCTGCTGGCATGCCTTCGGAGCGCGCGGCTGCGGTCACGCCGTTCGCCGCGATGGATGTCCTCGAACGCGCCGCCGAC (double strand) [aspB3-Pincl]
binding signal (% band density) [3]: 100

ACGACACCGGGTCGTTTTGATTGTCGGCTACGTGTCGCAGTGTTGGCGGTAGCGCCGCTCCAACGGTGGTTCCGTGGCGTTCCGCTGTCGGTTGACGATTCGGAAGATATTTTTTCACACGAACCAAATATCCTGACGTGAGCACTGAATCGACAGAAGAGCGAATCCTCGCCGCGCTCGAAGAGGACGCGCAAGCGTCGTATGCGGCCATCGCGGAGCGTGCGGACGTCTCCA (double strand) [lrpA1-Pincl]
binding signal (% band density) [3]: 100

ACGACACCGGGTCGTTTTGATTGTCGGCTACGTGTCGCAGTGTTGGCGGTAGCGCCGCTCCAACGGTGGTTCCGTGGCGTTCCGCTGTCGGTTGACGATTCGGAAGATACCCTTTCACACGAACCCCCTATCCTGACGTGAGCACTGAATCGACAGAAGAGCGAATCCTCGCCGCGCTCGAAGAGGACGCGCAAGCGTCGTATGCGGCCATCGCGGAGCGTGCGGACGTCTCCA (double strand) [lrpA1-Pincl (mutated)]
binding signal (% of lrpA1-Pincl) [3]: 24

B1: H. salinarum LrpA1 (OE2621R), His6-tagged (natural protein, Halobacterium salinarum R1, UniProt B0R4X4 1-142, looked up)
chain: MSTESTEERILAALEEDAQASYAAIAERADVSKPTVRKYIDQLESDGVIVGYSADVDPKKLSGQSIAMVGIDVASEQYVEATRTLQELDSVQALYSSSGDHMLMAEVRAADGDALGDVISDEVLAIDGVTAAHPSFLQERLK
notes: Leucine-responsive regulatory protein homologue LrpA1 of Halobacterium salinarum R1, locus OE2621R; theoretical size of the monomer 15.2 kDa; amplified by PCR and cloned NdeI/XhoI into pET26b; the cloning primers are in additional file 10; also called LrpA1-His6; transcription regulator LrpA1; source: E. coli BL21(DE3), pET26b; purified on Ni-NTA in 8 M urea, renatured by dialysis against high …
stoichiometry N [4]: 2

Reference: publication PMC2894021, “Transcriptional control by two leucine-responsive regulatory proteins in Halobacterium salinarum R1” (BMC Molecular Biology, 2010)
